T1: human DDR2 ECD (human, UniProt Q16832 22-399)
T1 construct: extracellular domain; also called DDR2 ECD protein
T1 sequence (looked up): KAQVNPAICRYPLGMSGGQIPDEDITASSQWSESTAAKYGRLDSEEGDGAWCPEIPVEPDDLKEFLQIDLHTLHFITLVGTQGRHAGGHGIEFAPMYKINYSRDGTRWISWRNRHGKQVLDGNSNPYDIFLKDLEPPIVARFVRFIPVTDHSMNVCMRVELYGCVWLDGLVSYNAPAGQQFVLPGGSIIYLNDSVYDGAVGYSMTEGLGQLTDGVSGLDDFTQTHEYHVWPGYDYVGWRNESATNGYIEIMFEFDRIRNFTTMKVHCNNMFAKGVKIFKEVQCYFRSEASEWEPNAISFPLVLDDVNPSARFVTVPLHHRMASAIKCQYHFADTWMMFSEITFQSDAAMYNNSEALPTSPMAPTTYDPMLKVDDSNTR

T2: mouse DDR1 ECD (mouse, UniProt Q03146 22-415)
T2 construct: extracellular domain; construct not described; also called mouse ECD
T2 sequence (looked up): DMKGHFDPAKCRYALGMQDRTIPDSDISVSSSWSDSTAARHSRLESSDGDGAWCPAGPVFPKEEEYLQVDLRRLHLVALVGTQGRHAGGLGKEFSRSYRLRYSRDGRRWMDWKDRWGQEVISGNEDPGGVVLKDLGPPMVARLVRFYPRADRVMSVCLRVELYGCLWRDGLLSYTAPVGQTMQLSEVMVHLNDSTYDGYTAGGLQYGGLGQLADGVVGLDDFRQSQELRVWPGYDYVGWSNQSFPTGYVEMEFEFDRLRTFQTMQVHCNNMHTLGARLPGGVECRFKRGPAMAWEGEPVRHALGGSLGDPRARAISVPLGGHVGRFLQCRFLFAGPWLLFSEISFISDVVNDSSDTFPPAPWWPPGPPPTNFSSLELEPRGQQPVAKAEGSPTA

B1: DDR1-9 (antibody, V domains shown)
VH: QSLEESGGRLVTPGTPLTLTCTASGFSLNRYYMLWVRQAPGEGLEWIGTISYGDTTYYASWAKGRFTISKTSTTVDLKMTSPTTEDTATYFCARADTGDNGYLGLQLWGPGTLVTVSS
VL: ELVMTQTPASVEAAVGGTVTIKCQASQSIGSVLAWYQQKPGQRPKLLISGVFDLASGVPSRFKGSGSGTEFTLTISDLECADAATYYCQYIPYGSSPFGGGTEVVVK
notes: Rabbit variable domains; also called anti-huDDR1 antibody #9; DDR1-9K/DDR1-9H
B2: DDR1-9Hu-Ab1 (antibody, V domains shown)
VH: QVQLVESGGRVVQPGRSLRLSCTASGFSLNRYYMLWVRQAPGKGLEWIGTISYGDTTYYASWAKGRFTISRDNSKNTLYLQMNSLRAEDTAVYYCARADTGDNGYLGLQLWGQGTLVTVSS
VL: DIQMTQSPSSVSASVGDRVTITCQASQSIGSVLAWYQQKPGKAPKLLISGVFDLASGVPSRFSGSGSGTDFTLTISSLQPEDFATYYCQYIPYGSSPFGGGTKVEIK
notes: Humanized form of DDR1-9; also called DDR1-9hu-Abl; humanized DDR1-9hu antibody
B3: DDR1-3 (antibody, V domains shown)
VH: QSVKESGGRLVTPGTPLTLTCTVSGIDLSSYAMSWVRQAPGKGLEWIGTINIGGGTWDATWARGRFTISRTSTTVDLKITSPTIGDTATYFCARDVDAHTLTYFTLWGPGTLVTISS
VL: ELVLTQTPASVSEPVGGTVTIKCQASQTISSWLSWYQQKPGQPPKLLIYYAFNLASGVPSRFKGSGSGTEFTLTISDLECADAATYYCQQGISSSNVDNVFGGGTEVVVK
notes: Rabbit variable domains; also called anti-huDDR1 antibody #3; DDR1-3K/DDR1-3H
B4: DDR1-33 (antibody, V domains shown)
VH: QSVEESGGRLVTPGGSLTLTCTVSGFSLSSYDMSWVRQAPGKGLEWIGISWNSGFVDYASWAKGRFSISKTSTTVDLKITSPTTEDTATYFCARLGADDIYYFNLWGPGTLVTISS
VL: ELVMTQTPASVEAAVGGTVTIKCQASETISSRLAWYQQKPGQPPKLLIYQASKLPSGVPSRFKGTGSGTEYTLTISDLECADAATYYCQGCYYGGGSFYDSAFGGGTEVVVK
notes: Rabbit variable domains; also called anti-huDDR1 #33 antibody; DDR1-33K/DDR1-33H
B5: DDR1-14 (antibody, V domains shown)
VH: QSVKESGGRLVTPGTPLTLTCTVSGIDLSYYAMSWVRQAPGKGLEYIGIINGRGDTGYATWAKGRFTISKTSTTVDLRITSPTIEDTATYFCAREDSAIPFIVGNYYGMDLWGPGTLVTVSS
VL: ELDMTQTPASVSEPVGGTVTIKCQASQSISSYLAWYQQKPGQPPKRLIFEASTLASGVPSRFSGSGSGTDFTLTISDLECADAATYYCQNNNGFSGSNFNNFGGGTEVEIK
notes: Rabbit variable domains; also called anti-huDDR1 antibody #14; DDR1-14K/DDR1-14H

Key:
Type I collagen = assay: ELISA on coated type I collagen with conditioned media
[1] = target: DDR1 ECD fragment with deletion of DS domain (Homo sapiens (Human)) (UniProt Q08345); assay: ELISA, ECDΔDS-His coated at 2 µg/ml, antibody titrated
human DDR2 ECD = target: T1, human DDR2 ECD; assay: ELISA, DDR2 ECD coated, antibody at 1 ug/ml, HRP anti-rabbit detection
Method: FIG. 19. Determination of cross-reactivity of a panel of monoclonal antibodies to human DDR2 using ELISA method. DDR1 or DDR2 ECD protein was coated on a high binding plate and each of monoclonal antibodies at 1 ug/ml concentration was added for binding detection with HRP conjugated anti-rabbit antibody (Jackson ImmuneResearch, PA).
To determination cross-reactivity of a panel of anti-human DDR1 monoclonal antibodies to human DDR2 ECD, an ELISA method was used. DDR1 ECD or DDR2 ECD protein was coated on a high binding plate and each of monoclonal antibodies was applied at 1 ug/ml concentration and binding was detected using HRP conjugated anti-rabbit antibody (Jackson ImmuneResearch, PA). Monoclonal antibodies DDR1-3; DDR1-9; DDR1-10; DDR1-14 and DDR1-33 were specific for DDR1 epitopes, while clones DDR1-13; DDR1-15; DDR1-21; DDR1-22 and DDR1-34 appear to recognize epitopes present on both DDR1 and DDR2 ECD.

[2] = target: T3, Human DDR1 extracellular domain (ECD) protein (human, UniProt Q08345 21-417); assay: titration ELISA; target not given, human DDR1 assumed
T3 construct: it is treated here as the same molecule; also called recombinant human DDR1 ECD; huDDR1 ECD; not shown: 6xHIS-tag
Target sequence in this assay (Q08345 21-417): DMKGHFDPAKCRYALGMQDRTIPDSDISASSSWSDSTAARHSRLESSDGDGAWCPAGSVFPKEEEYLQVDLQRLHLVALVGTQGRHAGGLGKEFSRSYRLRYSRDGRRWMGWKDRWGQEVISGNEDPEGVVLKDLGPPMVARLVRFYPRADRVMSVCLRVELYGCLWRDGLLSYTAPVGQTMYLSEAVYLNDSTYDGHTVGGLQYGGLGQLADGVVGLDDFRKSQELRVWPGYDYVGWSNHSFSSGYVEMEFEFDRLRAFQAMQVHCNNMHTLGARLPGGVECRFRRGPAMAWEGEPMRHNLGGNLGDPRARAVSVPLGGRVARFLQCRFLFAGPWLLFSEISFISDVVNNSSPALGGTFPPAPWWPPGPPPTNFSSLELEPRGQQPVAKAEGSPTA

[3] = target: T3, Human DDR1 extracellular domain (ECD) …; assay: ELISA, ECD-His coated at 2 µg/ml, antibody titrated
Method: (§1) FIG. 18A-C. Determination of DDR1 antibody binding to ECD and DS or DSL domains using ELISA method. Recombinant DDR1 extracellular (ECD) protein and domain proteins were coated on a high binding 96-well plates at concentration at 2 μg/ml. (FIG. 18A) DDR1-9Hu antibody titration was used to determine binding curves and EC₅₀s. […] (FIG. 18C)
(§2) Antibody binding domain determination. To determine the binding of DDR1-9 (FIG. 18B) and DDR1-14 (FIG. 18C), and humanized DDR1-9hu-Abl to ECD and DS or DSL domains an ELISA method was used (FIG. 18A). Recombinant DDR1 extracellular (ECD) protein and domain deletion proteins were coated onto high binding 96-well plates at concentration at 2 ug/ml. […] Recombinantly expressed domain proteins were coated on a high-binding 96-well plate (Fisher Scientific) at concentration at 2 ug/ml. A series of antibody titrations was used to determine binding EC50. Deletion of DSL domain of DDR1 ECD impaired the bindings of both DDR1-9 and DDR1-14 antibodies. […] Fragment with DSL deletion totally abolished DDR1-9, DDR1-14, and DDR1-9Hu binding.

[4] = target: T3, Human DDR1 extracellular domain (ECD) …; assay: BLI (Octet 96-Red), antibody on protein A biosensors, recombinant DDR1 0.1-200 nM, 1:1 fit
Method: Binding affinity of anti-DDR1 monoclonal antibodies determined using Bio-layer interferometry (BLI) sensor-based Octet instrument. […] Following a short baseline in kinetics buffer, the loaded biosensors were exposed to a series of recombinant DDR1 protein at 0.1-200 nM and background subtraction was used to correct for sensor drifting. All experiments were performed with shaking at 1,000 rpm. Background wavelength shifts were measured from reference biosensors that were loaded only with antibody. Kinetic sensorgrams for each antibody are shown in FIGS. 10A-B. ForteBio's data analysis software was used to fit the data to a 1:1 binding model to extract an association rate and dissociation rate. The KD was calculated using the ratio of koff/kₒₙ and the estimated values of KD for DDR1 mAbs in Table 13.
Target sequence in this assay (Q08345 21-417): as above

[5] = target: T3, Human DDR1 extracellular domain (ECD) …; assay: BLI (Octet); target not given, recombinant DDR1 assumed
[6] = target: T3, Human DDR1 extracellular domain (ECD) …; assay: ELISA, ECD protein coated at 2 ug/ml, antibody titration
Method: as §1, §2

[7] = target: DDR1 ECD fragment with deletion of DS domain (Homo sapiens (Human)) (UniProt Q08345); assay: ELISA, domain deletion protein coated at 2 ug/ml, antibody titration
[8] = target: T3, Human DDR1 extracellular domain (ECD) …; assay: titration ELISA on human DDR1
mouse DDR1 ECD = target: T2, mouse DDR1 ECD; assay: titration ELISA on mouse DDR1

Row | Molecule | binding result (human DDR2 ECD) | EC50 [2] | Kd [4] | koff [4] | kon [4] | EC50 (read off the curve) [8] | binding result (mouse DDR1 ECD) | further results
1 | mouse DDR1 ECD T58A (from UniProt Q03146 22-415) (receptor) | – | – | – | – | – | – | – | percent of WT collagen binding affinity (Type I collagen): 50%
2 | B1 | no binding (tested: 1 ug/ml) | 0.183 µg/mL | 0.236 nM | 7.35e-05 s⁻¹ | 311000 M⁻¹ s⁻¹ | – | – | EC50 (read off the curve) [1]: 0.2 µg/mL; EC50 (read off the curve) [3]: ~0.2 µg/mL
3 | B2 | – | – | – | – | – | – | – | Kd [5]: 0.39 nM; koff [5]: 6.52e-05 s⁻¹; kon [5]: 165000 M⁻¹ s⁻¹; EC50 [6]: 0.083 µg/mL; EC50 [7]: 0.168 µg/mL
4 | B3 | no binding (tested: 1 ug/ml) | 0.0598 µg/mL | 1.1 nM | 0.00191 s⁻¹ | 1.73e+06 M⁻¹ s⁻¹ | ~0.02 µg/mL | no binding | –
5 | B4 | no binding (tested: 1 ug/ml) | 0.148 µg/mL | 0.797 nM | 0.000493 s⁻¹ | 619000 M⁻¹ s⁻¹ | ~0.02 µg/mL | – | EC50 (read off the curve) (mouse DDR1 ECD): ~0.02 µg/mL
6 | B5 | no binding (tested: 1 ug/ml) | 0.0713 µg/mL | 0.113 nM | 2.27e-05 s⁻¹ | 202000 M⁻¹ s⁻¹ | – | no binding | –

Reference: patent US20230235078A1 (University of Texas, published 2023)
